From IntAct's records for PubMed 26824392

Biological target: rab8a_human RAB8A (UniProt P61006)
Sequence (P61006 whole entry): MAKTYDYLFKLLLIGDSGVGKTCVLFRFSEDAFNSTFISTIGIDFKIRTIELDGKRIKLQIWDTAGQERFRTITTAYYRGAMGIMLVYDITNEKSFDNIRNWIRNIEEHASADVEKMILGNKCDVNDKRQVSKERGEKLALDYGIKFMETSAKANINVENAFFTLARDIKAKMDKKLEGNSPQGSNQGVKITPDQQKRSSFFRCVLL

effect of a mutation on the interaction: with no effect
Substance: Leucine-rich repeat serine/threonine-protein kinase 2 (Homo sapiens), Q5S007 R1441C
